One block for each binder: values may come before it.
Legend:
[1] = biological target: T1, SI-2C1, dimeric EGFR ECD fused to rabbit Fc (UniProt P00533 25-645, limits assumed); assay: ELISA, dimeric EGFR ECD-rabbit Fc coated, anti-human IgG-HRP detection
T1 construct: extracellular domain; Made in house
Description: ELISA was performed using dimeric EGFR ECD reagent, SI-2C1, fused to rabbit Fc created in house. EGFR was coated onto Maxisorp immunoplates (Nunc) at 3 μg/mL in PBS at 4° C. overnight. Plates were blocked in PBS with 3% BSA and 0.05% Tween20 for 2 hours at room temperature. […] 3 washes with PBST (1% BSA) were performed between each step.

[2] = biological target: T2, Monomeric EGFR extracellular domain (ProSpec Bio, PKA-344) (UniProt P00533 25-645, limits assumed); assay: BLI (BLItz), antibody on anti-human IgG Fc tips, EGFR ECD 588 nM; benchmark antibody
T2 construct: extracellular domain; Bought reagent; also called EGFR ECD
Description: Monomeric EGFR extracellular domain binding was measured in a biolayer interferometry (BLI) binding assay on a BLItz instrument (ForteBio, Inc.). […] Binding of EGFR ECD to the tips was recorded as biolayer interferometry signals (Δnm) over an association time of 120 seconds.

[3] = biological target: T2, Monomeric EGFR extracellular domain …; assay: BLI (BLItz), antibody on anti-human IgG Fc tips, EGFR ECD 200 nM then Her3 ECD 200 nM
Description: Bispecific binding to EGFR and Her3 extracellular domains was measured in a biolayer interferometry (BLI) binding assay on a BLItz instrument (ForteBio, Inc.). […] Binding of EGFR ECD to the tips was recorded as biolayer interferometry signals (Δnm) over an association time of 120 seconds.

- binding result [1]: binds
B1: SI-1C5 (antibody, human IgG1, kappa, V domains shown)
VH: QVQLQQSGAEVKKPGSSVKVSCKASGYTFTNYYIYWVRQAPGQGLEWIGGINPTSGGSNFNEKFKTRVTITVDESTNTAYMELSSLRSEDTAFYFCARQGLWFDSDGRGFDFWGQGSTVTVSS
VL: DIQMTQSPSSLSASVGDRVTITCRSSQNIVHSNGNTYLDWYQQTPGKAPKLLIYKVSNRFSGVPSRFSGSGSGTDFTFTISSLQPEDIATYYCFQYSHVPWTFGQGTKLQITR
notes: Monospecific anti-EGFR antibody

- binding result [2]: binds
B2: SI-1C4 (bispecific antibody, human IgG1, kappa, V domains shown)
VH: EVQLVESGGGLVQPGGSLRLSCAASGFTLSGDWIHWVRQAPGKGLEWVGEISAAGGYTDYADSVKGRFTISADTSKNTAYLQMNSLRAEDTAVYYCARESRVSFEAAMDYWGQGTLVTVSS
VL: DIQMTQSPSSLSASVGDRVTITCRASQNIATDVAWYQQKPGKAPKLLIYSASFLYSGVPSRFSGSGSGTDFTLTISSLQPEDFATYYCQQSEPEPYTFGQGTKVEIKR
notes: also called IC4

- binding result [3]: binds
B3: SI-1X1 (bispecific antibody, human IgG1, kappa)
heavy: not shown
light: QSALTQPASVSGSPGQSITISCTGTSSDVGGYNFVSWYQQHPGKAPKLMIYDVSDRPSGVSDRFSGSKSGNTASLIISGLQADDEADYYCSSYGSSSTHVIFGGGTKLTVLRTVAAPSVFIFPPSDEQLKSGTASVVCLLNNFYPREAKVQWKVDNALQSGNSQESVTEQDSKDSTYSLSSTLTLSKADYEKHKVYACEVTHQGLSSPVTKSFNRGEC
notes: Tetravalent IgG-(G4S)2-scFv; heavy chain entry holds gamma-1 heavy chain, connector and scFv; Anti-Her3 IgG moiety, anti-EGFR scFv

Source: patent US20210277128A1 (published 2021)
